Assays:
[1] = biological target: the molecule itself; experiment: SEC; size exclusion chromatography of purified MupA (lower concentrations)
[2] = biological target: the molecule itself; experiment: SEC; size exclusion chromatography of purified MupA at higher concentrations (>2 mg/ml)
[3] = biological target: the molecule itself; experiment: not stated; purification of recombinant Fre (Figure S6); how the dimer was shown is not told in the main text

Row | Protein | stoichiometry N [1] | stoichiometry N [2] | stoichiometry N [3]
1 | MupA (enzyme, Pseudomonas fluorescens, UniProt Q9AH80 1-369, looked up, MupA, trans-acting flavin-dependent monooxygenase of the mupirocin biosynthetic gene cluster of Pseudomonas fluorescens; Dimeric by SEC; a dimer of dimers above 2 mg/ml; Used unlabelled in the NMR experiments; also called flavin-dependent monooxygenase (FMO); FMNH2-dependent oxygenase) MSVEQLLGLGVTNAARAPRQPAFSLLFFSDVREDISASEKYEFARSLTLFGDAQGFEAVYFPERHFHEFGAIYPDSAVMAASLIPQTRHIRFRTAGISLPLHHPARVVESWSMNDVLSGGRVDLGFGSGWSRPDFLLAPHAYEDRREVMWQRIEQVRRLWAGERLSFPGPGGDPVSVVTFPRPLQTSLNVWILVAQNTESFIAAGKAGFNVFTMLYGIDLPDLAEKIGLYRQARRDAGFDPASGRVTLMLHTLVGPDSAWVRRAVEAPFKDYIRSSLVAHMKARATPDGRPLDATEQENVLQYAFERYYETGALFGTVDEVRYRVGQVLETGVDEIACLMDFGVDYAVVHQSLPYLEQLVASFQERSAQ | 2 | 4 | –
2 | Fre (enzyme, E. coli, UniProt P0AEN1 1-233, looked up, Fre, NAD(P)H:flavin oxidoreductase of E. coli, GenBank M61182; also called oxidoreductase Fre; E. coli Fre; source: E. coli, recombinant, overexpressed, purified) MTTLSCKVTSVEAITDTVYRVRIVPDAAFSFRAGQYLMVVMDERDKRPFSMASTPDEKGFIELHIGASEINLYAKAVMDRILKDHQIVVDIPHGEAWLRDDEERPMILIAGGTGFSYARSILLTALARNPNRDITIYWGGREEQHLYDLCELEALSLKHPGLQVVPVVEQPEAGWRGRTGTVLTAVLQDHGTLAEHDIYIAGRFEMAKIARDLFCSERNAREDRLFGDAFAFI | – | – | 2
